Test results reported in paper PMC10715038 (2023).

Target: SARS-CoV-2 WHU01 RBD, monomeric (SARS-CoV-2 (WHU01), UniProt P0DTC2)
Assay: SPR

B1: horse ACE2 extracellular domain, human IgG1 Fc fusion protein (Fc fusion)
chain: QSTTEDLAKTFLEKFNSEAEELSHQSSLASWSYNTNITDENVQKMNEAGARWSAFYEEQCKLAKTYPLEEIQNLTVKRQLQALQQSGSSVLSADKSKLNEILNTMSTIYSTGKVCNPSNPQECLLLEPGLDAIMENSKDYNQRLWAWEGWRSEVGKQLRPLYEEYVVLKNEMARANNYEDYGDYWRGDYEAEGPSGYDYSRDQLIEDVERTFAEIKPLYEHLHAYVRAKLMDTYPSHINPTGCLPAHLLGDMWGRFWTNLYSLTVPFGQKPNIDVTDAMVDQSWDAKRIFEEAEKFFVSVGLPNMTQGFWENSMLTEPGDGRKVVCHPTAWDLGKGDFRIKMCTKVTMDDFLTAHHEMGHIQYDMAYAVQPYLLRNGANEGFHEAVGEIMSLSAATPNHLKAIGLLPPDFYEDSETEINFLLKQALTIVGTLPFTYMLEKWRWMVFKGEIPKEEWMKKWWEMKREIVGVVEPVPHDETYCDPAALFHVANDYSFIRYYTRTIYQFQFQEALCQTAKHEGPLHKCDISNSTEAGQKLLQMLSLGKSEPWTLALERIVGVKNMDVRPLLNYFEPLFTWLKDQNKNSFVGWSTNWSPYADQSIKVRISLKSALGEKSYEWNDNEMYLFQSSVAYAMRVYFLKAKNQTILFGEEDVWVSDLKPRISFNFFVTSPKNASDIIPRTDVEEAIRMSRSRINDAFRLDDNTLEFLGIQPTLGPPYQPPVTV
B1 gave a Kd of 89.8 nM.

B2: cat ACE2 extracellular domain, human IgG1 Fc fusion protein (Fc fusion)
chain: QSTTEELAKTFLEKFNHEAEELSYQSSLASWNYNTNITDENVQKMNEAGAKWSAFYEEQSKLAKTYPLAEIHNTTVKRQLQALQQSGSSVLSADKSQRLNTILNAMSTIYSTGKACNPNNPQECLLLEPGLDDIMENSKDYNERLWAWEGWRAEVGKQLRPLYEEYVALKNEMARANNYEDYGDYWRGDYEEEWTDGYNYSRSQLIKDVEHTFTQIKPLYQHLHAYVRAKLMDTYPSRISPTGCLPAHLLGDMWGRFWTNLYPLTVPFGQKPNIDVTDAMVNQSWDARRIFKEAEKFFVSVGLPNMTQGFWENSMLTEPGDSRKVVCHPTAWDLGKGDFRIKMCTKVTMDDFLTAHHEMGHIQYDMAYAVQPFLLRNGANEGFHEAVGEIMSLSAATPNHLKTIGLLSPGFSEDSETEINFLLKQALTIVGTLPFTYMLEKWRWMVFKGEIPKEQWMQKWWEMKREIVGVVEPVPHDETYCDPASLFHVANDYSFIRYYTRTIYQFQFQEALCRIAKHEGPLHKCDISNSSEAGKKLLQMLTLGKSKPWTLALEHVVGEKKMNVTPLLKYFEPLFTWLKEQNRNSFVGWNTDWRPYADQSIKVRISLKSALGDEAYEWNDNEMYLFRSSVAYAMREYFSKVKNQTIPFVEDNVWVSNLKPRISFNFFVTASKNVSDVIPRSEVEEAIRMSRSRINDAFRLDDNSLEFLGIQPTLSPPYQPPVT
B2 showed a Kd of 554 nM.
